Test results as given in the nanobody polyreactivity screen of Harvey et al. (2022).

Test: yeast display, Sf9 membrane polyspecificity reagent, FACS + sequencing; frameworks hold sequencing errors
Method in brief: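 Galactose-induced (36–48 hours) yeast carrying a synthetic nanobody display library were exposed to 10% biotinylated, detergent-solubilized Sf9 membrane reagent at 4 °C for 1 hour. FACS followed streptavidin microbead enrichment, using low and high (top ~1%) gates for expression (anti-HA) and reagent binding (streptavidin). Colony PCR, MiSeq 2 × 250 sequencing and CDR-length filtering followed. Labels for polyreactivity reflect the gate of origin.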

Sequence | polyreactivity (PSR sort gate)
QVQLVESGGGLVQAGGSLRLSCAASGFTFRFYGMGWYRQAPGKERELVAAISSRGTTTYYADSVKGRFTISRDNAKNTVYLQMNSLKPEDTAVYYCNKEYTTYGYDLEYDYWGLGTQVTVSS | low polyreactivity
QVQLVESGGGLVQAGGSLRLSCAASGRIFVIYGMGWYRQAPGKERELVATISWSGSSTSYADSVKGRFTISRDNAKNTVYLQMNSLKPEDTAVYYCAAYTWYSRHRMNYWGQGTQVTVSS | high polyreactivity
QVQLVESGGGLVQAGGSLRLSCAASGRIITKYNTMGCYRPATGIEMELVAAINRSAGSTYYADSVKGRFTISRDNAKNTVYLQMNSLKTEDTAVYYCAAKRGASYGSSLGAPRRHYDEYWGQGTQVTVSS | low polyreactivity
QVRLVESGGGLVQAGGSLRLSCAASGRIFQYYAMGWYRQAPGKERELVASITSGGGSTYYADSVKGRFTISRDNAKNTVYVQMNSLKPEDSAVYYCAVDIYNYSNVHYYYWGQGTQVTVSS | low polyreactivity
QVQLVESGGGLVQAGGSLRLSCAASGITISPNAMGWYRQAPGKERELVAAIDWSGDRTYYADSVKGRFTISRDNAKNTVYLQINSLKPEDTAVYYCNVVRRSPGDYSYYYWGQGTQVTVSS | low polyreactivity
QVQLVESGGGLVQAGGSLRLSCDASGSTFGPYTMGWYRQAPGKERELVATISSGGSTYYADSVKGRFTISRDNAKNTVYLQMNSLKPEETAVYYCAARYWSIYDYWGPGTQVTVSS | low polyreactivity
QVQLVESGGGLVQAGGSLRLSWAAYGRTILWYTMGWYRQAPGKERDLVADISSSGGTTFYADSVKGRFTISRDNAKNTVYLQMNSLKAVDNAVYYCKRNARKLRTVHSSVVGLDYWGQGTQVTVSS | low polyreactivity
QVQLVESGGGLVQAGGSLSLSCAASGSTIVVNAMGWYRQAPGKERELVASISWTTCSTYYADSVKGRFTISRDNAKNTVYLQMNSLKPEDTAVYYCAADILPRYSQFDYWGQGTQVTVSS | low polyreactivity
QVQLVESGGGLVQAGGSLRLSCAASGFIFKLYAMGWYRQAPGKERELVAAIRSSGGSTYYADSVKGRFTISRDNAKNTVYLQMNSLKPEDTAVYYCAKVGGRVRYNYWGQGTQVTVSS | high polyreactivity
QVQLVESGGGLVQAGGSLRLSCAASGFIFVGNAMGWYRQAPGKERELVAAISRRGSRTFYADSVKGRFTISRDNAKNTVYLQMNSLKPEDTAVYYCATDKWYGYYYWGQGTQVTVSS | low polyreactivity
QVQLVESGGGLVQAGGSLRLSCAASGRILGFYAMGWYRQAPGKERELVDSINWSGTRTYYADSVKARFTISRDNAKNTVYLQLNSLKPEDTAVYYCAAERYPYGVTYSKLDYWGQGTQVTVSS | high polyreactivity
QVQLVESGGGLVQAGGSLRLSCAASGRIFRGYAMGWYRQAPGKERELVADISSGASTNYADSVKGRFTISRDNAKNTVYFQMNSLKPEDTAVYYCAAQHSVLAYFEYDYWGQGTQVTVSS | low polyreactivity
QVQLVESGGGLVQAGGSLRLSCAASGSIFSAYVMGWYRQAPGKERELVAAITRSGGSTYYADSVKGRFTISRDNAKNTVYLQMNSLKPEDTAVYYCAVDYLLHYYSYIEDYWGQGTQVTVSS | low polyreactivity
QVQLVESGGGLVQAGGSLRLSCAASGRIFDRNAMGWYRQAPGKERELVAAIRRGGSTNYADSVKGRFTISRDNAKNTVYLQMNSLKPEDTAVYYCNTVYSEYYIAYDYWGQGTQVTVSS | high polyreactivity
QVQLVESGGGLVQAGGSLRLSCAASGIIFTDYAMGWYRQAPGIERELVAAISGSGGSTYYADSVKGRFTISRDNAKNTVYLQMNSLKPEDTAVYYCAAATHIFLQVYYAYGYWGQGTQVTVSS | high polyreactivity
QVQLVESGGGLVQAGGSLRLSCAASGSIFNSYAMGWYRQAPGKERELVAAIRWSGGRTYYADSVKGRFTISRDNAKNTVYLQMNSLKPEDTAVYYCNVVSPGRVNYWGQGTQVTVSS | high polyreactivity
QVQLVESGGGLVQAGGSLRLSCAASGSTFYHYAMGWYRQAPGKERELVAAISTSGGRTYYADSVKGRFTISRDNAKNTVYLQMNSLKPEDTAVYYCAARPGSWYPSVPSYNYWGQGTQVTVSS | low polyreactivity
QVQLVESGGGLVQAGGSLRLSCAASGSILYINTMGWYRQAPGKERELVAAITYSGGSTYYADSVKGRLTISRDNAKNTVYLQMNRLKPEDTAVYYCAADGYYGGYNYWGQGTQVTVSS | low polyreactivity
QVQLVESGGGLVQAGGSLRLSCAASGFIFYRYAMGWYRQAPGKERELVAAISRSGGSTYYADSVKGRFTISRDNAKNTVYLQMNSLKPEDTAVYYCAADRGSLAPGNDYWGQGNQVTVSS | high polyreactivity
QVQLVESGGGLVQAGGSLRLSCAASGFTFTRYAMGWYRQAPGKERELVAAISWSGGSTYYADSVKGRFTISRDNAKNTVYLQMNSLKPEDTAVYYCAKRGTVRQGGYGYWGQGTLVTVSS | high polyreactivity
QVQLVESGGGLVQAGGSLRLSCAASGSTLYAYAMGWYRQAPGKERELVASIPAGGITHYADSVKGRVTISRDNANNTVYLHMISLKPEDTAVDYCNTVAYLRRFDKWGMNYWGQGTQVTVSS | low polyreactivity
QVQLVESGGGLVQAGGSLRLSCAASGRIFRYNTMGWYRQAPGKERELVADINSGGSTYADSVKGRFTISRDNAKNTVYLQMNSLKPEDTAVYYCNADSGLRAGYYYGYDYWGQGTQVTVSS | low polyreactivity

Sequence | polyreactivity (PSR sort gate)
QVQLVESGGGLVQAGGSLRLICAASGRTIYIYTMGWYRQAPGKERELVASISWNGGRTYYADSVKGRFTISRDNAKNTVYLQMNSLKPEDTAVYYCAAQYGVYDYLGQGTQVTVSS | low polyreactivity
QVQLVESGGGLVQAGGSLRLSCAASGSTIIGYTMGWYRQAPGKERELVADISNGGSTNYADSVKGRFTISRDNAKNTVYLQLNSLKPEDTAVYYCNAEAWYYWGWPFFIATYDYWGQGTQVTVSS | low polyreactivity
QLQLVESGGRIVQAGGSLRLSCAASGITIRYYAMGWYRQAPGKERELVAAITRSGSTTYADSVKGRFTISRDNAKNTVYFQMNSLKPEDTAVYYCAVDFYYLTGGVDYWGQGTQVTVSS | low polyreactivity
QVQLEESGGGLVQAGGSLRLSCSASGSIFRGYAMGWYRQAPGKERELVAAITSGGRTNYADSVKGRFTISRDNAKITVYLQMNSLKPEVTAVYYWIAGFRFYAYSRIAGEDYWGQGSQVTVSS | low polyreactivity
QVQLVESGGGLVQAGGSLRLSSAASGTIFRSYSMGWSRQAPGKERELVASITWRGGRTYYADSVKGRFTISRDNAKNTVYLQMNSLKPEDTAVDFCAVLWTPAGGYYFRYDYWGQGTQVTVSS | low polyreactivity
QVQLVESGGGLVQAGGSLSLSCAASGRIFSLNVMGWYSQARGKERELVATIRGRGTSTYYADSVKGRFTISRDTAKNTVYLQMNSLKPEDTAVFYCAARGHGAYGYWGQGTQVTVSS | low polyreactivity
QVQLVESGGGLVQAGGSLRLSCAASGGIFLVYTMGWYRQAPGKEREMVAAITSGGSTKYADSVKGRFTISRDNAKNTVYFQMNSLKPEDTAVYYCAAGVQYARYQARYFYWGQGTPVTVSS | high polyreactivity
QVQLVESGGGLVQAGGILRLSCAASGITFIRNGMGWYRQAPGKERELVAAISDTGARTYYADSVKGSFTISRDNAKNTVYLQMNSLKPVDTAVYYCAAEVRTRYLYSFRWYDYWGQGTQVTVSS | low polyreactivity
QVQLVESGGGLVQAGGSLRLTCAASGSIFYAYAMGWYRQAPGKERELVAGITFSDDSTYYADSVKGRFTISRDNAKNTVYLQMNSLKPEDTAVYYCAADTISWYGNYYYWGQGTQVTVSS | high polyreactivity
QVQLVESGGGLVQAGGSLRLSCAASGFIFYRYAMGWSRQAPGKERELVAAISYRGGSTYYADSVKGRFTISRDIAKNTVYLQMNSLKAEDTAFYYCAAPGLYSRLDYWGQGTQVTVSS | high polyreactivity
QVQLVESGAGLVQAGGSLRLSCAASGRTFAFYAMGWYRQAPGKERELVAAITLGASRTYYADSVKGRFTISRDNAKNTVYLQMNSRKPEDTAVYYCNAVGRRNVDSSLNDYWGQGTLVTVSS | low polyreactivity
QVQLVESGGGLVQAGGSLRLSCAASGSIYHPYALGWYRQAPGKERELVAAISKSGGNTYYADSVKGRFTISRDNAKNTVYLQMNCLKPEDTAVYYCAALDYWGQGTQVTVSS | low polyreactivity
QVQLVESGGGLGQAGGSLRVSCAASGGTLYYYAMGWYRQARGKERELVADITNSGSTNYADAVKGRFTISRDNAKNTVYLQMNSLKPEDTAVYSCAAAFSRRYDWGQGTQVTVSS | high polyreactivity
QVQLVESGGGLVQAGGSLRLSCAASGITFFRYTMGWYRQAPGKEREFVADISRSGDTTYYADSVKGRFTISRDNAKNSVYLQMNSLKPEDTAVYYCARLTRSGEYGYWGQGTQVTVSS | high polyreactivity
QVQLVESGGGLVQAGGSLRLSCAASGNTFFTYAMGWYRQAPGQERELVAVITSVGSTNYADSVKGLFTISRDNAKNTVYLQMNSLKPEDTAVYYCAAKGYRVYRYYRGRTYDYWGQGSQVTVSS | high polyreactivity
QVQLVESGGGLVQAGGSLRLSCAASGSIFKYYAMGWYRQAPGKERELVAAISSGGRTYYADSVKGRFTISRDNAKNTVYLQMNSLKPEDTAVYYCNRGTVNSWARGYWGQGTQVTVSS | high polyreactivity
QVQLVESGGRIVQAGGSLRLRCAASGRTLLRYAMGWSRQAPGKERELVAAISSSGGRTYYADSVKGRFTISRDNEKNTVYLQMNSLKPEDTAVYYCAAKSSYVGHDYWGQGTQVTVSS | high polyreactivity
QFQLVDSVRGLVQAGVSLRLSCAASGRIFVKYVIGSYRQAPGTESQLVAANRSYGGSPYYADSVKGRFTISRDNAKNTVYLQMNSLKPEDTAVYYCAKRLHYSAPRYTEYDEWGHGTQVTVSS | high polyreactivity
QVQLVESRGGLVQARGSLRLSSAASGRIFSDYAMGCYRQAPGKERDLVATISGGITNYADSVKGRFTISRDNANNTVYLQMNSLKPEDTAVYYCATVDGAYQYTYDYWGEGTQVTVSS | low polyreactivity
QVQLVESGVGLVQAGGSLRLSFASSGRIFPTNAMGSYSQAPRKEREFVPAITWRGGSTYYADSVKGRFTISRDNAKNTVYLQINSLKPEDTAVYYCAATGHIVFFRAYDYGYWGQGTQVTVSS | low polyreactivity
QVQLVESGGGLVQAGGSLRLSCAASGITFYLYAMGWYRQAPGKERELVAAISSSGGSTYYADSVKGRFTISRDNAKNTVYLQMNSLKPEDTAVYYCNARRRTVPYRYYYWGQGTQVTVSS | high polyreactivity
